Laboratory results reported in the RNAGym collection of RNA variant scans (doi:10.1021/acssynbio.7b00057).

B1: Pistol ribozyme (parent)
chain: GGGUCGUUGUUCCAUAAUCGCGUGGAUAUGGCACGCAAGUUUCUACCGGGCACCGUAAAUGUCCGACUGGAGCCGUUCGGGCGGCUAUAAACAGACCUCAGGCCCGAAGCGUGGCGGCACCUGCCGCCGGUGGUAAAAAAGAUCGGAAGAGCACACGUCU

Variants of: B1
Experiment: aptazyme ON/OFF ratio, guanine; higher = stronger switching; co-transcriptional cleavage with and without guanine

Row | Variant | aptazyme ON/OFF ratio
1 | U8A G9C U10A C12A | 1.27
2 | U8A G9C U10A C12G | 1.17
3 | U8A G9C U10A C12U | 1.14
4 | U8A G9C U10C U11C C12A C13A | 1.04
5 | U8A G9C U10C U11C C12A C13U | 1.03
6 | U8A G9C U10C U11C C12A C13G | 1.01
7 | U8A G9C U10A U11G C12G C13U | 1.21
8 | U8A G9C U10A U11G C12G C13G | 1.16
9 | U8A G9C U10A U11G C12G C13A | 1.15
10 | U8A G9C U10C U11A C12G | 1.03
11 | U8A G9C U10C U11A C12U | 1.13
12 | U8A G9C U10C U11A C12A | 1.06
13 | U8A G9C U10C C12A C13A | 1.03
14 | U8A G9C U10C C12A C13G | 1.08
15 | U8A G9C U10C C12A C13U | 0.995
16 | U8A G9C U10A U11A C13A | 1.16
17 | U8A G9C U10A U11A C13G | 1.08
18 | U8A G9C U10A U11A C13U | 1.22
19 | U8A G9U C12A C13U | 1.15
20 | U8A G9U C12A C13G | 1.16
21 | U8A G9U C12A C13A | 1.52
22 | U8A G9C U10A C12G C13G | 1.11
23 | U8A G9C U10A C12G C13A | 1.19
24 | U8A G9C U10A C12G C13U | 1.14

Row | Variant | aptazyme ON/OFF ratio
25 | U8A G9C U10A U11A C12A | 1.25
26 | U8A G9C U10A U11A C12G | 1.37
27 | U8A G9C U10A U11A C12U | 1.24
28 | U8A G9C U10G | 1.54
29 | U8A G9C U10A | 1.38
30 | U8A G9C U10C | 1.35
31 | U8A G9U U10A C12A | 1.34
32 | U8A G9U U10A C12G | 1.31
33 | U8A G9U U10A C12U | 1.4
34 | U8A G9U U10A | 1.31
35 | U8A G9C C13G | 1.04
36 | U8A G9C C13A | 1.11
37 | U8A G9C C13U | 1.17
38 | U8A G9C U10A U11G C13U | 1.18
39 | U8A G9C U10A U11G C13G | 1.04
40 | U8A G9C U10A U11G C13A | 1.11
41 | U8A G9C U10G U11A C12A C13U | 1.21
42 | U8A G9C U10G U11A C12A C13G | 1.16
43 | U8A G9C U10G U11A C12A C13A | 1.18
44 | U8A G9C U10C U11G C12G C13A | 1.14
45 | U8A G9C U10C U11G C12G C13U | 1.09
46 | U8A G9C U10C U11G C12G C13G | 1.12
47 | U8A G9U U10A U11A C13A | 1.29
48 | U8A G9U U10A U11A C13G | 1.07

Row | Variant | aptazyme ON/OFF ratio
49 | U8A G9U U10A U11A C13U | 1.28
50 | U8A G9C U11G C12U C13A | 1.31
51 | U8A G9C U11G C12U C13G | 1.27
52 | U8A G9C U11G C12U C13U | 1.08
53 | U8A G9C U10A U11G C12A C13U | 1.14
54 | U8A G9C U10A U11G C12A C13A | 1.14
55 | U8A G9C U10A U11G C12A C13G | 1.26
56 | U8A G9U C12G C13A | 1.21
57 | U8A G9U C12G C13G | 1.23
58 | U8A G9U C12G C13U | 1.26
59 | U8A G9U | 2.15
60 | U8A G9C | 1.2
61 | U8A G9C U11A C12A C13G | 1.18
62 | U8A G9C U11A C12A C13U | 1.21
63 | U8A G9C U11A C12A C13A | 1.22
64 | U8A G9C U10C U11C C13U | 0.998
65 | U8A G9C U10C U11C C13A | 1.02
66 | U8A G9C U10C U11C C13G | 1.06
67 | U8A G9C U10G U11G C12G C13G | 1.23
68 | U8A G9C U10G U11G C12G C13A | 1.14
69 | U8A G9C U10G U11G C12G C13U | 1.31
70 | U8A G9C U10A U11A C12A C13U | 1.37
71 | U8A G9C U10A U11A C12A C13G | 1.19
72 | U8A G9C U10A U11A C12A C13A | 1.21

Row | Variant | aptazyme ON/OFF ratio
73 | U8A G9U C12A | 1.22
74 | U8A G9U C12G | 1.18
75 | U8A G9U C12U | 1.46
76 | U8A G9C U10A U11C C12A C13G | 1.12
77 | U8A G9C U10A U11C C12A C13U | 1.24
78 | U8A G9C U10A U11C C12A C13A | 1.22
79 | U8A G9C U11G C13U | 1.17
80 | U8A G9C U11G C13G | 1.04
81 | U8A G9C U11G C13A | 1.15
82 | U8A G9A U11C C13U | 1.04
83 | U8A G9A U11C C13G | 1.08
84 | U8A G9A U11C C13A | 1.04
85 | U8A G9C U11G C12G | 1.16
86 | U8A G9C U11G C12A | 1.06
87 | U8A G9C U11G C12U | 1.45
88 | U8A G9C C12G C13G | 1.14
89 | U8A G9C C12G C13A | 1.2
90 | U8A G9C C12G C13U | 1.27
91 | U8A G9A U11G C13U | 1.17
92 | U8A G9A U11G C13A | 1.13
93 | U8A G9A U11G C13G | 1.09
94 | U8A G9C C12G | 1.22
95 | U8A G9C C12U | 1.3
96 | U8A G9C C12A | 1.37

Row | Variant | aptazyme ON/OFF ratio
97 | U8A G9C U10G U11A C12U C13U | 1.08
98 | U8A G9C U10G U11A C12U C13G | 1.11
99 | U8A G9C U10G U11A C12U C13A | 1.12
100 | U8A G9C U10G U11C C13U | 1.03
101 | U8A G9C U10G U11C C13G | 1.06
102 | U8A G9C U10G U11C C13A | 1.11
103 | U8A G9C U10G U11G C12A C13G | 1.14
104 | U8A G9C U10G U11G C12A C13U | 1.21
105 | U8A G9C U10G U11G C12A C13A | 1.13
106 | U8A G9C U10A C12A C13G | 1.14
107 | U8A G9C U10A C12A C13U | 1.19
108 | U8A G9C U10A C12A C13A | 1.22
109 | U8A G9C U10C U11A C12A C13U | 1.13
110 | U8A G9C U10C U11A C12A C13G | 1.05
111 | U8A G9C U10C U11A C12A C13A | 1.04
112 | U8A G9C U11A C13A | 1.16
113 | U8A G9C U11A C13G | 1.06
114 | U8A G9C U11A C13U | 1.16
115 | U8A G9C U11C C12A C13G | 1.05
116 | U8A G9C U11C C12A C13U | 1.06
117 | U8A G9C U11C C12A C13A | 1.07
118 | U8A G9C U10G C12U | 1.28
119 | U8A G9C U10G C12G | 1.17
120 | U8A G9C U10G C12A | 1.18

Row | Variant | aptazyme ON/OFF ratio
121 | U8A G9C U10A U11C C12G C13U | 1.07
122 | U8A G9C U10A U11C C12G C13A | 1.13
123 | U8A G9C U10A U11C C12G C13G | 1.09
124 | U8A G9C U10G U11G C12U | 1.23
125 | U8A G9C U10G U11G C12G | 1.24
126 | U8A G9C U10G U11G C12A | 1.14
127 | U8A G9C U10G C12A C13A | 1.19
128 | U8A G9C U10G C12A C13G | 1.03
129 | U8A G9C U10G C12A C13U | 1.37
130 | U8A G9U U10A C12U C13A | 1.25
131 | U8A G9U U10A C12U C13G | 1.18
132 | U8A G9U U10A C12U C13U | 1.13
133 | U8A G9C U10G U11C C12G C13A | 1.27
134 | U8A G9C U10G U11C C12G C13G | 1.17
135 | U8A G9C U10G U11C C12G C13U | 1.19
136 | U8A G9C U10C U11A C12G C13U | 1.16
137 | U8A G9C U10C U11A C12G C13G | 1.12
138 | U8A G9C U10C U11A C12G C13A | 1.06
139 | U8A G9C U11G | 1.25
140 | U8A G9C U11A | 1.21
141 | U8A G9C U11C | 1.03
142 | U8A G9C U10A C12U C13A | 1.09
143 | U8A G9C U10A C12U C13U | 0.997
144 | U8A G9C U10A C12U C13G | 1.04

Row | Variant | aptazyme ON/OFF ratio
145 | U8A G9U U10A C12G C13A | 1.34
146 | U8A G9U U10A C12G C13U | 1.33
147 | U8A G9U U10A C12G C13G | 1.28
148 | U8A G9U U10A U11A | 1.67
149 | U8A G9U U10A U11C | 1.03
150 | U8A G9U U10A U11A C12A C13A | 1.16
151 | U8A G9U U10A U11A C12A C13U | 1.24
152 | U8A G9U U10A U11A C12A C13G | 1.23
153 | U8A G9C U10G U11A C12G C13A | 1.26
154 | U8A G9C U10G U11A C12G C13U | 1.15
155 | U8A G9C U10G U11A C12G C13G | 1.52
156 | U8A G9C U10G U11G C12U C13A | 1.08
157 | U8A G9C U10G U11G C12U C13G | 1.08
158 | U8A G9C U10G U11G C12U C13U | 1.11
159 | U8A G9C U10A U11A C12G C13A | 1.14
160 | U8A G9C U10A U11A C12G C13U | 1.3
161 | U8A G9C U10A U11A C12G C13G | 1.23
162 | U8A G9A U11G C12U | 1.35
163 | U8A G9A U11G C12A | 1.08
164 | U8A G9A U11G C12G | 1.08
165 | U8A G9U U10A C13G | 1.1
166 | U8A G9U U10A C13A | 1.26
167 | U8A G9U U10A C13U | 1.2
